Experimental findings from the supplement of paper PMC10724198 are described below.

In this data set the test system is Saccharomyces cerevisiae. The data set is described as follows: protein stability index of tFT-peptide fusion (C-terminal peptide) (PSI (0-1 scale)); higher = more stable (slower turnover). Particulars: temperature: 30 C. Here is the method:
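MPS profiling in S. cerevisiae of the yeast C-terminome library: the last 12 aa of each annotated ORF are fused to the C-terminus of a sfGFP-mCherry timer, after a GGGS linker. Cells are FACS-sorted into 8 mCherry/sfGFP bins and deep-sequenced. PSI runs from 0 (unstable) to 1 (stable); wild type and das1Δ backgrounds, two technical replicates each.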

Where [1] appears, read: genetic background: das1 deletion.

± gives the standard deviation of the averaged measurements.

MDLKRFKGEFSF [PEX5 C-terminal 12 aa]: the protein stability index under setting [1] worked out at 0.69824 ± 0.00026 and the protein stability index (genetic background: wild type) turned out to be 0.685 ± 0.036.

Regarding MDSRVAHGNILI [SRB5 C-terminal 12 aa], the protein stability index was 0.70004 ± 0.00046 under setting [1] and 0.688 ± 0.092 (genetic background: wild type).

Take MGCIKGTVKTKY [ABZ2 C-terminal 12 aa]: the protein stability index was 0.668 ± 0.039 under setting [1] and 0.756 ± 0.14 (genetic background: wild type).

As for MIENEKQNPAKQ [OSH6 C-terminal 12 aa], the protein stability index reads like this: under setting [1], 0.693 ± 0.0075; (genetic background: wild type) 0.692 ± 0.028.

As to MMGFSNFATSKK [SNU23 C-terminal 12 aa], the protein stability index was found to be 0.728 ± 0.011 under setting [1] and 0.683 ± 0.035 (genetic background: wild type).

Turning to MNKKHHKPIPFD [RRD2 C-terminal 12 aa], the protein stability index was 0.762 ± 0.027 under setting [1] and 0.697 ± 0.0073 (genetic background: wild type).

Regarding MPSATTKNPYAQ [CAF120 C-terminal 12 aa], the protein stability index worked out at 0.709 ± 0.042 under setting [1] and 0.686 ± 0.034 (genetic background: wild type).

As for MRLLGLTPVERM [YDR341C C-terminal 12 aa], the protein stability index was 0.672 ± 0.00072 under setting [1] and 0.696 ± 0.034 (genetic background: wild type).

For MTRLKKLLTLEW [ZIP2 C-terminal 12 aa], the protein stability index by setting is: under setting [1], 0.817 ± 0.047; (genetic background: wild type) 0.733 ± 0.046.

For MVSSLRNANHIF [BCS1 C-terminal 12 aa], the protein stability index by setting is: under setting [1], 0.712 ± 0.028; (genetic background: wild type) 0.681 ± 0.025.

Take NAKSKVFSIENN [LSG1 C-terminal 12 aa]: the protein stability index is 0.681 ± 0.039 under setting [1] and 0.678 ± 0.015 (genetic background: wild type).

Turning to NCEPIATTFRAN [MGL2 C-terminal 12 aa], the protein stability index runs as follows: under setting [1], 0.7086 ± 0.00098; (genetic background: wild type) 0.681 ± 0.018.

For the sequence NDDSKDEDDIIP [MAL33 C-terminal 12 aa], the protein stability index runs as follows: under setting [1], 0.6831 ± 0.0019; (genetic background: wild type) 0.731 ± 0.056.

Take NDTEHVTLHTNT [YDL228C C-terminal 12 aa]: the protein stability index under setting [1] amounted to 0.711 ± 0.0095 and the protein stability index (genetic background: wild type) is 0.688 ± 0.031.

Consider NEASKATGASVH [YOP1 C-terminal 12 aa], for which the protein stability index worked out at 0.7 ± 0.0098 under setting [1] and 0.737 ± 0.094 (genetic background: wild type).

For NGPVNNNAHLVA [FAT3 C-terminal 12 aa], the protein stability index reads like this: under setting [1], 0.689 ± 0.0098; (genetic background: wild type) 0.709 ± 0.049.

With NGSDNVTPGGRL [STE50 C-terminal 12 aa], the protein stability index reads like this: under setting [1], 0.708 ± 0.014; (genetic background: wild type) 0.685 ± 0.022.

With NIIIIILYVYIH [MOR1 C-terminal 12 aa], the protein stability index is, setting by setting: under setting [1], 0.227 ± 0.0036; (genetic background: wild type) 0.228 ± 0.025.

For NISNGSSTQDMK [HPR1 C-terminal 12 aa], the protein stability index under setting [1] stood at 0.703 ± 0.029 and the protein stability index (genetic background: wild type) was 0.704 ± 0.065.

Consider NKGSQLLAKLLK [PUF6 C-terminal 12 aa], for which the protein stability index under setting [1] came to 0.7305 ± 0.0034 and the protein stability index (genetic background: wild type) was 0.674 ± 0.036.

NKHDLHLRPETY [YAR010C C-terminal 12 aa]: the protein stability index is 0.658 ± 0.018 under setting [1] and 0.678 ± 0.021 (genetic background: wild type).

As to “NKHDLHLRPGTY [YDR098C-A C-terminal 12 aa]”, the protein stability index reads like this: under setting [1], 0.66848 ± 3.1e-05; (genetic background: wild type) 0.658 ± 0.007.

Consider NKLLDKESVSED [YLR046C C-terminal 12 aa], for which the protein stability index was 0.709 ± 0.027 under setting [1] and 0.711 ± 0.11 (genetic background: wild type).

In the case of “NKTICLRNYHWL [YIR017W-A C-terminal 12 aa]”, the protein stability index runs as follows: under setting [1], 0.702 ± 0.012; (genetic background: wild type) 0.607 ± 0.0078.

As for NLKLKFNENIME [DIT2 C-terminal 12 aa], the protein stability index by setting is: under setting [1], 0.695 ± 0.033; (genetic background: wild type) 0.639 ± 0.0087.

Turning to NLLLSGSLYQKN [BUD28 C-terminal 12 aa], the protein stability index reads like this: under setting [1], 0.751 ± 0.011; (genetic background: wild type) 0.672 ± 0.036.

For the sequence NMEKFVRKCWKD [MKK1 C-terminal 12 aa], the protein stability index is 0.691 ± 0.059 under setting [1] and 0.73796 ± 0.00058 (genetic background: wild type).

On to NQVKLNQLLVGN [CSE1 C-terminal 12 aa], for which the protein stability index runs as follows: under setting [1], 0.627 ± 0.038; (genetic background: wild type) 0.641 ± 0.0068.

In turn, NTLLSPSRKDNS [MVB12 C-terminal 12 aa] displayed a protein stability index under setting [1] of 0.705 ± 0.0098 and a protein stability index (genetic background: wild type) of 0.698 ± 0.034.

The sequence NVAAAEASKKGN [YET1 C-terminal 12 aa] registered a protein stability index under setting [1] of 0.728 ± 0.033 and a protein stability index (genetic background: wild type) of 0.685 ± 0.053.

On to NVDDAYSRVFGI [MPS2 C-terminal 12 aa], for which the protein stability index by setting is: under setting [1], 0.719 ± 0.011; (genetic background: wild type) 0.673 ± 0.025.

Consider NVEDEYSYSLTL [VPS68 C-terminal 12 aa], for which the protein stability index runs as follows: under setting [1], 0.701 ± 0.0071; (genetic background: wild type) 0.706 ± 0.066.

On to NVGNNEETLDDH [RAD34 C-terminal 12 aa], for which the protein stability index is 0.726 ± 0.047 under setting [1] and 0.701 ± 0.067 (genetic background: wild type).

On to NVWDWNNWTSAT [GAL11 C-terminal 12 aa], for which the protein stability index worked out at 0.7485 ± 0.006 under setting [1] and 0.767 ± 0.012 (genetic background: wild type).

The sequence NYESVEVPAANN [YML018C C-terminal 12 aa] displayed a protein stability index under setting [1] of 0.682 ± 0.0077 and a protein stability index (genetic background: wild type) of 0.7097 ± 0.0019.

For the sequence PARESMLHKEIK [ADE12 C-terminal 12 aa], the protein stability index reads like this: under setting [1], 0.745 ± 0.011; (genetic background: wild type) 0.668 ± 0.011.

For the sequence “PCYSDAPPRFMC [YER152W-A C-terminal 12 aa]”, the protein stability index runs as follows: under setting [1], 0.701 ± 0.034; (genetic background: wild type) 0.287 ± 0.0035.

Regarding PDMIEELDLHED [GPD1 C-terminal 12 aa], the protein stability index stood at 0.716 ± 0.031 under setting [1] and 0.749 ± 0.1 (genetic background: wild type).

Regarding “PDYKSNTQILVL [YOL155W-A C-terminal 12 aa]”, the protein stability index is, setting by setting: under setting [1], 0.56446 ± 0.00018; (genetic background: wild type) 0.584 ± 0.029.

As for PEEETNWFSGHG [PRP31 C-terminal 12 aa], the protein stability index under setting [1] is 0.745 ± 0.032 and the protein stability index (genetic background: wild type) was found to be 0.73 ± 0.025.

With PEMIEELDIDDE [GPD2 C-terminal 12 aa], the protein stability index stood at 0.707 ± 0.018 under setting [1] and 0.658 ± 0.015 (genetic background: wild type).

In the case of PEYDQVKQNNKE [YLR041W C-terminal 12 aa], the protein stability index is, setting by setting: under setting [1], 0.691 ± 0.023; (genetic background: wild type) 0.676 ± 0.03.

PFNRNVSDKLKK [VAC14 C-terminal 12 aa]: the protein stability index reads like this: under setting [1], 0.733 ± 0.038; (genetic background: wild type) 0.713 ± 0.063.

Take PGVMLGRWKVTA [VPS61 C-terminal 12 aa]: the protein stability index is, setting by setting: under setting [1], 0.612 ± 0.013; (genetic background: wild type) 0.356 ± 0.0069.

Regarding PGWDFNVQIFAI [HRD3 C-terminal 12 aa], the protein stability index reads like this: under setting [1], 0.618 ± 0.005; (genetic background: wild type) 0.607 ± 0.0086.

On to “PIICASVTFLPT [YAL056C-A C-terminal 12 aa]”, for which the protein stability index is, setting by setting: under setting [1], 0.6572 ± 0.00082; (genetic background: wild type) 0.629 ± 0.026.

As for PIKGGDKASSEL [ATG5 C-terminal 12 aa], the protein stability index amounted to 0.679 ± 0.0085 under setting [1] and 0.6877 ± 0.0045 (genetic background: wild type).

Take PILSQEVDRWRL [GAC1 C-terminal 12 aa]: the protein stability index was 0.732 ± 0.011 under setting [1] and 0.744 ± 0.018 (genetic background: wild type).

Turning to PIRGVTGGVYKW [MRPL22 C-terminal 12 aa], the protein stability index was found to be 0.71 ± 0.012 under setting [1] and 0.702 ± 0.02 (genetic background: wild type).

Take PKALFQSRDQEH [SIC1 C-terminal 12 aa]: the protein stability index turned out to be 0.724 ± 0.022 under setting [1] and 0.702 ± 0.014 (genetic background: wild type).
